Where “and” joins values, the source holds several entries; their conditions need not be identical. Identical values can stand only once.
Experiments:
SppI-SPA (B. subtilis) = SppI-SPA (B. subtilis) (UniProt O34424); assay: affinity purification with mass spectrometry; tandem affinity purification of SppI-SPA (calmodulin resin, then anti-FLAG resin) from B. subtilis membranes in 10 mM Tris-Cl pH 7.5, 150 mM NaCl, 1% DDM, 4°C; LC-MS/MS; two independent experiments
[1] = molecular target: the molecule itself; assay: SEC; gel filtration of affinity-purified proteins on Superdex 200 GL 10/300; apparent sizes against MW markers

| stoichiometry N (SppA per SppI (by the PAI values)) (SppI-SPA (B. subtilis)) | Molecule | stoichiometry N [1] |
| --- | --- | --- |
| 1 and 2 | SppA (from UniProt O34525 1-335) (enzyme) |  |
|  | 6×His-SppA (enzyme, B. subtilis, UniProt O34525 1-335, looked up, SppA, membrane protease of Bacillus subtilis, amplified from BSB1 chromosomal DNA; Purified alone it gave at least three bands of 32 to 34 kDa (C-terminal domain partly self-cleaved); purified with SppI the major band was about 36 kDa and still held most of the C terminus; source: E. coli ER2566, purified from the cytoplasmic membrane fraction (1% DDM, Ni-NTA, gel filtration); not shown: 6×His, …) MNAKRWIALVIALGIFGVSIIVSISMSFFESVKGAQTDLTSLTDESQEKTLENGSPSSKIAVLEVSGTIQDNGDSSSLLGADGYNHRTFLKNLERAKDDKTVKGIVLKVNSPGGGVYESAEIHKKLEEIKKETKKPIYVSMGSMAASGGYYISTAADKIFATPETLTGSLGVIMESVNYSKLADKLGISFETIKSGAHKDIMSPSREMTKEEKNIMQSMVDNSYEGFVDVISKGRGMPKAEVKKIADGRVYDGRQAKKLNLVDELGFYDDTITAMKKDHKDLKNASVISYEESFGLGSLFSMGANKMFKSEIDFLNMREILSQSGSPRMMYLYAK | 8 |
|  | 6×His-SppA^K199A (enzyme, B. subtilis, UniProt O34525 1-335, looked up, SppA, membrane protease of Bacillus subtilis, with the active-site mutation K199A; band of about 36 kDa; not shown: 6×His, N-terminal, kept) MNAKRWIALVIALGIFGVSIIVSISMSFFESVKGAQTDLTSLTDESQEKTLENGSPSSKIAVLEVSGTIQDNGDSSSLLGADGYNHRTFLKNLERAKDDKTVKGIVLKVNSPGGGVYESAEIHKKLEEIKKETKKPIYVSMGSMAASGGYYISTAADKIFATPETLTGSLGVIMESVNYSKLADKLGISFETIKSGAHADIMSPSREMTKEEKNIMQSMVDNSYEGFVDVISKGRGMPKAEVKKIADGRVYDGRQAKKLNLVDELGFYDDTITAMKKDHKDLKNASVISYEESFGLGSLFSMGANKMFKSEIDFLNMREILSQSGSPRMMYLYAK | 8 |
|  | SppI-FLAG (natural protein, B. subtilis, UniProt O34424 1-164, looked up, SppI (formerly YteJ), membrane protein of Bacillus subtilis; not shown: FLAG, C-terminal, kept) MDATYEELERNDIKGPQEAELLTHAYAGFWVRFWAFLLDWLVIWGLNHLLVSPLFTVLDLPKTSGMFTFSAYSVTTLIVYLAYFALMTKYFRQTLGKMVFGLKVVSVKQDSKLTWSTVIFREVVGRYIDKIWILYIVVAFSPTKQGIHDYIADTTVVHEKLYRK | 8 |
|  | 6×His-SppI (natural protein, B. subtilis, UniProt O34424 1-164, looked up, SppI (formerly YteJ), membrane protein of Bacillus subtilis, amplified from BSB1 chromosomal DNA; source: E. coli ER2566, purified from the membrane fraction (1% DDM, Ni-NTA, gel filtration); not shown: 6×His, N-terminal, kept) MDATYEELERNDIKGPQEAELLTHAYAGFWVRFWAFLLDWLVIWGLNHLLVSPLFTVLDLPKTSGMFTFSAYSVTTLIVYLAYFALMTKYFRQTLGKMVFGLKVVSVKQDSKLTWSTVIFREVVGRYIDKIWILYIVVAFSPTKQGIHDYIADTTVVHEKLYRK | 8 |

Source: paper PMC7568657, “SppI Forms a Membrane Protein Complex with SppA and Inhibits Its Protease Activity in Bacillus subtilis” (mSphere, 2020)
